Test results published in publication doi:10.1101/2023.07.23.550228.

Target: GvpT (B. megaterium)
Test: SDS-PAGE and Western blot

GvpT (natural protein)
stoichiometry N: 2
